Test results from patent publication US20160195541A1.
Values joined by “and” are separate entries in the source; they are usually repeats but may differ in a detail not shown here. Equal values may be shown once.

Assays:
[1] = molecular target: membrane-bound human FcγRIIB on Raji cells (human) (UniProt P31994); assay: FACS on Raji cells (FACS021), constant aggregated IgG; competitor SM101 Ref. Std. 0.0156 µg/µL
[2] = molecular target: membrane-bound human FcγRIIB on Raji cells (human) (UniProt P31994); assay: FACS on Raji cells (FACS021), constant aggregated IgG; competitor SM101 IMP 0.0625 µg/µL
[3] = molecular target: membrane-bound human FcγRIIB on Raji cells (human) (UniProt P31994); assay: FACS on Raji cells (FACS021), constant aggregated IgG; competitor SM101 IMP 0.25 µg/µL
[4] = molecular target: membrane-bound human FcγRIIB on Raji cells (human) (UniProt P31994); assay: FACS on Raji cells (FACS007), constant aggregated IgG; competitor SM101 0.125 µg/µL
[5] = molecular target: membrane-bound human FcγRIIB on Raji cells (human) (UniProt P31994); assay: FACS on Raji cells (FACS021), constant aggregated IgG; competitor SM101 IMP 0.5 µg/µL
[6] = molecular target: membrane-bound human FcγRIIB on Raji cells (human) (UniProt P31994); assay: FACS on Raji cells, aggregated Beriglobin at 5.0 (µg/µL)
[7] = molecular target: membrane-bound human FcγRIIB on Raji cells (human) (UniProt P31994); assay: FACS on Raji cells (FACS021), constant aggregated IgG; competitor SM101 IMP 0.125 µg/µL
[8] = molecular target: membrane-bound human FcγRIIB on Raji cells (human) (UniProt P31994); assay: FACS on Raji cells (FACS021), constant aggregated IgG; competitor SM101 IMP 0.0078 µg/µL
[9] = molecular target: membrane-bound human FcγRIIB on Raji cells (human) (UniProt P31994); assay: FACS on Raji cells, aggregated Beriglobin at 5.0 (µg/µL); mean of three batches
[10] = molecular target: membrane-bound human FcγRIIB on Raji cells (human) (UniProt P31994); assay: FACS on viable Raji cells (FcγRIIB) with aggregated Beriglobin and no SM101; detected with anti-human IgG(H+L)-PE secondary antibody
[11] = molecular target: membrane-bound human FcγRIIB on Raji cells (human) (UniProt P31994); assay: FACS on Raji cells (FACS007), constant aggregated IgG, anti-human IgG-PE; no competitor
[12] = molecular target: membrane-bound human FcγRIIB on Raji cells (human) (UniProt P31994); assay: FACS on Raji cells (FACS007), constant aggregated IgG; competitor SM101 0.5 µg/µL
[13] = molecular target: membrane-bound human FcγRIIB on Raji cells (human) (UniProt P31994); assay: FACS on Raji cells (FACS007), constant aggregated IgG; competitor SM101 0.03125 µg/µL
[14] = molecular target: membrane-bound human FcγRIIB on Raji cells (human) (UniProt P31994); assay: FACS on Raji cells (FACS021), constant aggregated IgG; competitor SM101 Ref. Std. 0.0625 µg/µL
[15] = molecular target: membrane-bound human FcγRIIB on Raji cells (human) (UniProt P31994); assay: FACS on Raji cells (FACS021), constant aggregated IgG; competitor SM101 Ref. Std. 0.25 µg/µL
[16] = molecular target: membrane-bound human FcγRIIB on Raji cells (human) (UniProt P31994); assay: FACS: 0.1E6 Raji cells (FcγRIIB) with 2.5 µg aggregated Beriglobin at the stated pH; 1/200 anti-human IgG(H+L)-PE; secondary antibody alone in this panel 173; pH 7.2
[17] = molecular target: membrane-bound human FcγRIIB on Raji cells (human) (UniProt P31994); assay: FACS: 0.1E6 Raji cells (FcγRIIB) with 2.5 µg aggregated Beriglobin at the stated pH; 1/200 anti-human IgG(H+L)-PE; secondary antibody alone in this panel 142
[18] = molecular target: membrane-bound human FcγRIIB on Raji cells (human) (UniProt P31994); assay: FACS: 0.1E6 Raji cells (FcγRIIB) with 2.5 µg aggregated Beriglobin at the stated pH; 1/200 anti-human IgG(H+L)-PE; secondary antibody alone in this panel 173
[19] = molecular target: membrane-bound human FcγRIIB on Raji cells (human) (UniProt P31994); assay: FACS on Raji cells (FACS021), constant aggregated IgG; no competitor (Ref. Std. series)
[20] = molecular target: membrane-bound human FcγRIIB on Raji cells (human) (UniProt P31994); assay: FACS on Raji cells (FACS021), constant aggregated IgG; competitor SM101 Ref. Std. 0.125 µg/µL
[21] = molecular target: membrane-bound human FcγRIIB on Raji cells (human) (UniProt P31994); assay: FACS on Raji cells, aggregated Beriglobin at 2.5 (µg/µL); mean of three batches
[22] = molecular target: membrane-bound human FcγRIIB on Raji cells (human) (UniProt P31994); assay: FACS: 0.1E6 Raji cells (FcγRIIB) with 2.5 µg aggregated Beriglobin at the stated pH; 1/200 anti-human IgG(H+L)-PE; drawn table, secondary antibody control not subtracted; pH 7.2
[23] = molecular target: membrane-bound human FcγRIIB on Raji cells (human) (UniProt P31994); assay: FACS on Raji cells (FACS021), constant aggregated IgG; competitor SM101 Ref. Std. 0.0078 µg/µL
[24] = molecular target: membrane-bound human FcγRIIB on Raji cells (human) (UniProt P31994); assay: FACS: 0.1E6 Raji cells (FcγRIIB) with 2.5 µg aggregated Beriglobin at the stated pH; 1/200 anti-human IgG(H+L)-PE; secondary antibody alone in this panel 173; pH 6.5
[25] = molecular target: membrane-bound human FcγRIIB on Raji cells (human) (UniProt P31994); assay: FACS on Raji cells (FACS021), constant aggregated IgG; competitor SM101 IMP 0.03125 µg/µL

UniProt P31994, sequence (P31994 43-310): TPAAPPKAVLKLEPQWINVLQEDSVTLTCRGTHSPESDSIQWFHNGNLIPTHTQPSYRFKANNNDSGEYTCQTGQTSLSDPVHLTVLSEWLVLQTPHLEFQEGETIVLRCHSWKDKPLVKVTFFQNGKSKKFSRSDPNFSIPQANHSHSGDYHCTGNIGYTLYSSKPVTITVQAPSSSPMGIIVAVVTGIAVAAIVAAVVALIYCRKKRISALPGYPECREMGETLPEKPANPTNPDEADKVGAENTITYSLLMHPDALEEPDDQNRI

“aggregated human IgG (aggregated Beriglobin, aggregated fraction isolated by size exclusion chromatography) (antibody)” showed a Median Signal [1] of 2330, a Median Signal [2] of 831 and a Median Signal [3] of 281. The Median Signal [4] was 329, the Median Signal [5] was 195 and the Median MFI [6] was 1230 and 1140 and 960. It also gave a Median Signal [7] of 478, a Median Signal [8] of 5310 and a Median MFI (mean) [9] of 1110. The percent of gated viable cells in the upper right quadrant of the dot plot (PE-A above about 10^3) [10] was 84.7, the Median Signal [11] was 3880 and the Median Signal [12] was 238. It also gave a Median Signal [13] of 1240, a Median Signal [14] of 921 and a Median Signal [15] of 269. For the same substance, the Median MFI at pH 7.2 (left panel) [16] was 561, the Median MFI at pH 7.0 (right panel) [17] was 866 and the Median MFI at pH 8.0 (right panel) [17] was 316. It also gave a Median MFI at pH 8.5 (right panel) [17] of 246, a Median MFI at pH 9.0 (right panel) [17] of 244 and a Median MFI at pH 10 (right panel) [17] of 177. It also gave a Median MFI at pH 7.0 (left panel) [18] of 599, a Median MFI at pH 7.8 (left panel) [18] of 363 and a Median MFI at pH 8.0 (left panel) [18] of 348. The Median Signal [19] was 6460, the Median Signal [20] was 362 and the Median MFI (mean) [21] was 1280. It also gave a Median MFI at pH 7.2 [22] of 561, a Median Signal [23] of 5230 and a Median MFI at pH 6.5 (left panel) [24] of 703. For the same substance, the Median Signal [25] was 1780.
